Measurements reported in patent US20170202936A1, “Identification, Optimization And Use Of Cryptic HLA-B7 Epitopes For Immunotherapy” (VAXON BIOTECH, priority 2006, published 2017).

Biological target: HLA-B*0702 (human)
Assay: T2-B7 cells, HLA-B*0702 surface expression (ME-1 mAb); ratio to reference peptide CMV265-274 (SEQ ID NO: 9)
Conditions: remark: other sources report otherwise

RA (relative affinity): > 10
Binder: DPRRLVQLL [TERT444]
